Results published in patent US20140227179A1.

Legend:
[1] = target: MUC5ac mucin (PAM4 antigen) from CaPan1 human pancreatic carcinoma (human) (UniProt P98088); experiment: inhibition EIA on CPM1-coated plates; competitor hPAM4 at […]
[2] = target: MUC5ac mucin (PAM4 antigen) from CaPan1 human pancreatic carcinoma (human) (UniProt P98088); experiment: sandwich EIA, hPAM4 capture of antigen from CPM1, MAb probe at 10 µg/mL (FIG. 26)
[3] = target: MUC5ac mucin (PAM4 antigen) from CaPan1 human pancreatic carcinoma (human) (UniProt P98088); experiment: ELISA on target mucin antigen (FIG. 9)
[4] = target: IMP-288 DOTA-di-HSG hapten-peptide; experiment: 111In-IMP-288 with TF10, size exclusion chromatography (not shown)
[5] = target: MUC5ac mucin (PAM4 antigen) from CaPan1 human pancreatic carcinoma (human) (UniProt P98088); experiment: size exclusion chromatography of TF10/111In-IMP-288 with excess mucin
[6] = target: MUC5ac mucin (PAM4 antigen) from CaPan1 human pancreatic carcinoma (human) (UniProt P98088); experiment: radiolabeled TF10 with MUC5ac, size exclusion chromatography (not shown)

Row | Substance | ICmax (maximal % inhibition) [1] [%] | Kd [2] [µg/mL] | EC50 [3] [nM] | percent of peptide bound [4] [%] | percent of TF10-bound 111In-IMP-288 shifted by mucin [5] [%] | immunoreactive fraction bound [6] [%]
1 | 45M1 anti-MUC5ac MAb (antibody) | 25.5 | 14.3 | – | – | – | –
2 | TF10 bispecific ([hPAM4]2 x h679) DNL construct (bispecific antibody) | – | – | 1.42 | 90 | 92 | 87
